Earlier results in patent US9394339B2, “Stabilized formulations of peptides and proteins protecting against non-enzymatic degradation” (Lyotropic Therapeutics, Inc., priority 2007, dated 2016).
Read-outs that look alike come from different tables or passages of the source.

Conditions: for T1/2 (half-life, deamidation): buffer
[1] = aqueous solution, pH 7.4, 37° C., Tris-HCl buffer

Molecule | T1/10 (time to 10% degradation by deamidation) [1] [days] | T1/2 (half-life, deamidation) (pH 7.4) [days] | T1/10 (time to 10% degradation by deamidation) (pH 7.4) [days]
Acetylcholinesterase (1F8U): human protein (protein, UniProt P22303 32-614, looked up) Acetylcholinesterase: EGREDAELLVTVRGGRLRGIRLKTPGGPVSAFLGIPFAEPPMGPRRFLPPEPKQPWSGVVDATTFQSVCYQYVDTLYPGFEGTEMWNPNRELSEDCLYLNVWTPYPRPTSPTPVLVWIYGGGFYSGASSLDVYDGRFLVQAERTVLVSMNYRVGAFGFLALPGSREAPGNVGLLDQRLALQWVQENVAAFGGDPTSVTLFGESAGAASVGMHLLSPPSRGLFHRAVLQSGAPNGPWATVGMGEARRRATQLAHLVGCPPGGTGGNDTELVACLRTRPAQVLVNHEWHVLPQESVFRFSFVPVVDGDFLSDTPEALINAGDFHGLQVLVGVVKDEGSYFLVYGAPGFSKDNESLISRAEFLAGVRVGVPQVSDLAAEAVVLHYTDWLHPEDPARLREALSDVVGDHNVVCPVAQLAGRLAAQGARVYAYVFEHRASTLSWPLWMGVPHGYEIEFIFGIPLDPSRNYTAEEKIFAQRLMRYWANFARTGDPNEPRDPKAPQWPPYTAGAQQYVSLDLRPLEVRRGLRAQACAFWNRFLPKLLSATDTLDEAERQWKAEFHRWSSYMVHWKNQFDHYSKQDRCSDL | 3.5 | – | –
Catalase (1QQW): human protein (protein, UniProt P04040 2-527, looked up) Catalase: ADSRDPASDQMQHWKEQRAAQKADVLTTGAGNPVGDKLNVITVGPRGPLLVQDVVFTDEMAHFDRERIPERVVHAKGAGAFGYFEVTHDITKYSKAKVFEHIGKKTPIAVRFSTVAGESGSADTVRDPRGFAVKFYTEDGNWDLVGNNTPIFFIRDPILFPSFIHSQKRNPQTHLKDPDMVWDFWSLRPESLHQVSFLFSDRGIPDGHRHMNGYGSHTFKLVNANGEAVYCKFHYKTDQGIKNLSVEDAARLSQEDPDYGIRDLFNAIATGKYPSWTFYIQVMTFNQAETFPFNPFDLTKVWPHKDYPLIPVGKLVLNRNPVNYFAEVEQIAFDPSNMPPGIEASPDKMLQGRLFAYPDTHRHRLGPNYLHIPVNCPYRARVANYQRDGPMCMQDNQGGAPNYYPNSFGAPEQQPSALEHSIQYSGEVRRFNTANDDNVTQVRAFYVNVLNEEQRKRLCENIAGHLKDAQIFIQKKAVKNFTEVHPDYGSHIQALLDKYNAEKPKNAIHTFVQSGSHLAAREKANL | 3.8 | – | –
Bone morphogenetic protein 7 (1BMP): human protein (protein, UniProt P18075 293-431, looked up) Bone morphogenetic protein 7: STGSKQRSQNRSKTPKNQEALRMANVAENSSSDQRQACKKHELYVSFRDLGWQDWIIAPEGYAAYYCEGECAFPLNSYMNATNHAIVQTLVHFINPETVPKPCCAPTQLNAISVLYFDDSSNVILKKYRNMVVRACGCH | 3.2 | – | –
Pepsinogen (1HTR): human protein (protein, UniProt P20142 17-388, looked up, pro-form) pro-form: AVVKVPLKKFKSIRETMKEKGLLGEFLRTHKYDPAWKYRFGDLSVTYEPMAYMDAAYFGEISIGTPPQNFLVLFDTGSSNLWVPSVYCQSQACTSHSRFNPSESSTYSTNGQTFSLQYGSGSLTGFFGYDTLTVQSIQVPNQEFGLSENEPGTNFVYAQFDGIMGLAYPALSVDEATTAMQGMVQEGALTSPVFSVYLSNQQGSSGGAVVFGGVDSSLYTGQIYWAPVTQELYWQIGIEEFLIGGQASGWCSEGCQAIVDTGTSLLTVPQQYMSALLQATGAQEDEYGQFLVNCNSIQNLPSLTFIINGVEFPLPPSSYILSNNGYCTVGVEPTYLSSQNGQPLWILGDVFLRSYYSVYDLGNNRVGFATAA | 3.0 | – | –
S-adenosylhomocysteine hydrolase (1A7A): human protein (protein, UniProt P23526 2-432, looked up) Adenosylhomocysteinase: SDKLPYKVADIGLAAWGRKALDIAENEMPGLMRMRERYSASKPLKGARIAGCLHMTVETAVLIETLVTLGAEVQWSSCNIFSTQDHAAAAIAKAGIPVYAWKGETDEEYLWCIEQTLYFKDGPLNMILDDGGDLTNLIHTKYPQLLPGIRGISEETTTGVHNLYKMMANGILKVPAINVNDSVTKSKFDNLYGCRESLIDGIKRATDVMIAGKVAVVAGYGDVGKGCAQALRGFGARVIITEIDPINALQAAMEGYEVTTMDEACQEGNIFVTTTGCIDIILGRHFEQMKDDAIVCNIGHFDVEIDVKWLNENAVEKVNIKPQVDRYRLKNGRRIILLAEGRLVNLGCAMGHPSFVMSNSFTNQVMAQIELWTHPDKYPVGVHFLPKKLDEAVAEAHLGKLNVKLTKLTEKQAQYLGMSCDGPFKPDHYRY | 4.3 | – | –
Karyopherin 2 (1QBK): human protein (protein, UniProt Q92973 1-898, looked up) Transportin-1: MVWDRQTKMEYEWKPDEQGLQQILQLLKESQSPDTTIQRTVQQKLEQLNQYPDFNNYLIFVLTKLKSEDEPTRSLSGLILKNNVKAHFQNFPNGVTDFIKSECLNNIGDSSPLIRATVGILITTIASKGELQNWPDLLPKLCSLLDSEDYNTCEGAFGALQKICEDSAEILDSDVLDRPLNIMIPKFLQFFKHSSPKIRSHAVACVNQFIISRTQALMLHIDSFIENLFALAGDEEPEVRKNVCRALVMLLEVRMDRLLPHMHNIVEYMLQRTQDQDENVALEACEFWLTLAEQPICKDVLVRHLPKLIPVLVNGMKYSDIDIILLKGDVEEDETIPDSEQDIRPRFHRSRTVAQQHDEDGIEEEDDDDDEIDDDDTISDWNLRKCSAAALDVLANVYRDELLPHILPLLKELLFHHEWVVKESGILVLGAIAEGCMQGMIPYLPELIPHLIQCLSDKKALVRSITCWTLSRYAHWVVSQPPDTYLKPLMTELLKRILDSNKRVQEAACSAFATLEEEACTELVPYLAYILDTLVFAFSKYQHKNLLILYDAIGTLADSVGHHLNKPEYIQMLMPPLIQKWNMLKDEDKDLFPLLECLSSVATALQSGFLPYCEPVYQRCVNLVQKTLAQAMLNNAQPDQYEAPDKDFMIVALDLLSGLAEGLGGNIEQLVARSNILTLMYQCMQDKMPEVRQSSFALLGDLTKACFQHVKPCIADFMPILGTNLNPEFISVCNNATWAIGEISIQMGIEMQPYIPMVLHQLVEIINRPNTPKTLLENTAITIGRLGYVCPQEVAPMLQQFIRPWCTSLRNIRDNEEKDSAFRGICTMISVNPSGVIQDFIFFCDAVASWINPKDDLRDMFCKILHGFKNQVGDENWRRFSDQFPLPLKERLAAFYGV | 0.81 | – | –
Fructose bisphosphate aldolase (4ALD): human protein (protein, UniProt P04075 2-364, looked up) Fructose-bisphosphate …: PYQYPALTPEQKKELSDIAHRIVAPGKGILAADESTGSIAKRLQSIGTENTEENRRFYRQLLLTADDRVNPCIGGVILFHETLYQKADDGRPFPQVIKSKGGVVGIKVDKGVVPLAGTNGETTTQGLDGLSERCAQYKKDGADFAKWRCVLKIGEHTPSALAIMENANVLARYASICQQNGIVPIVEPEILPDGDHDLKRCQYVTEKVLAAVYKALSDHHIYLEGTLLKPNMVTPGHACTQKFSHEEIAMATVTALRRTVPPAVTGITFLSGGQSEEEASINLNAINKCPLLKPWALTFSYGRALQASALKAWGGKKENLKAAQEEYVKRALANSLACQGKYTPSGQAGAAASESLFVSNHAY | – | 7.6 | 1.2
Dihydrofolate reductase (1DRF): human protein (protein, UniProt P00374 1-187, looked up) Dihydrofolate reductase: MVGSLNCIVAVSQNMGIGKNGDLPWPPLRNEFRYFQRMTTTSSVEGKQNLVIMGKKTWFSIPEKNRPLKGRINLVLSRELKEPPQGAHFLSRSLDDALKLTEQPELANKVDMVWIVGGSSVYKEAMNHPGHLKLFVTRIMQDFESDTFFPEIDLEKYKLLPEYPGVLSDVQEEKGIKYKFEVYEKND | – | 25 | 3.8
Farnesyltransferase (1EZF): human protein (protein, UniProt P37268 1-417, looked up) Squalene synthase: MEFVKCLGHPEEFYNLVRFRIGGKRKVMPKMDQDSLSSSLKTCYKYLNQTSRSFAAVIQALDGEMRNAVCIFYLVLRALDTLEDDMTISVEKKVPLLHNFHSFLYQPDWRFMESKEKDRQVLEDFPTISLEFRNLAEKYQTVIADICRRMGIGMAEFLDKHVTSEQEWDKYCHYVAGLVGIGLSRLFSASEFEDPLVGEDTERANSMGLFLQKTNIIRDYLEDQQGGREFWPQEVWSRYVKKLGDFAKPENIDLAVQCLNELITNALHHIPDVITYLSRLRNQSVFNFCAIPQVMAIATLAACYNNQQVFKGAVKIRKGQAVTLMMDATNMPAVKAIIYQYMEEIYHRIPDSDPSSSKTRQIISTIRTQNLPNCQLISRSHYSPIYLSFVMLLAALSWQYLTTLSQVTEDYVQTGEH | 4.0 | – | –
Inositol monophosphatase (1IMB): human protein (protein, UniProt P29218 1-277, looked up) Inositol monophosphatase 1: MADPWQECMDYAVTLARQAGEVVCEAIKNEMNVMLKSSPVDLVTATDQKVEKMLISSIKEKYPSHSFIGEESVAAGEKSILTDNPTWIIDPIDGTTNFVHRFPFVAVSIGFAVNKKIEFGVVYSCVEGKMYTARKGKGAFCNGQKLQVSQQEDITKSLLVTELGSSRTPETVRMVLSNMEKLFCIPVHGIRSVGTAAVNMCLVATGGADAYYEMGIHCWDVAGAGIIVTEAGGVLMDVTGGPFDLMSRRVIAANNRILAERIAKEIQVIPLQRDDED | – | 15 | 2.3
Interleukin-16 (1I16): human protein (protein, UniProt Q14005 1212-1332, looked up) Interleukin-16: SAASASAASDVSVESTAEATVCTVTLEKMSAGLGFSLEGGKGSLHGDKPLTINRIFKGAASEQSETVQPGDEILQLGGTAMQGLTRFEAWNIIKALPDGPVTIVIRRKSLQSKETTAAGDS | 2.6 | – | –
Myeloperoxidase (1MHL): human protein (protein, UniProt P05164 165-745, looked up) Myeloperoxidase: VTCPEQDKYRTITGMCNNRRSPTLGASNRAFVRWLPAEYEDGFSLPYGWTPGVKRNGFPVALARAVSNEIVRFPTDQLTPDQERSLMFMQWGQLLDHDLDFTPEPAARASFVTGVNCETSCVQQPPCFPLKIPPNDPRIKNQADCIPFFRSCPACPGSNITIRNQINALTSFVDASMVYGSEEPLARNLRNMSNQLGLLAVNQRFQDNGRALLPFDNLHDDPCLLTNRSARIPCFLAGDTRSSEMPELTSMHTLLLREHNRLATELKSLNPRWDGERLYQEARKIVGAMVQIITYRDYLPLVLGPTAMRKYLPTYRSYNDSVDPRIANVFTNAFRYGHTLIQPFMFRLDNRYQPMEPNPRVPLSRVFFASWRVVLEGGIDPILRGLMATPAKLNRQNQIAVDEIRERLFEQVMRIGLDLPALNMQRSRDHGLPGYNAWRRFCGLPQPETVGQLGTVLRNLKLARKLMEQYGTPNNIDIWMGGVSEPLKRKGRVGPLLACIIGTQFRKLRDGDRFWWENEGVFSMQQRQALAQISLPRIICDNTGITTVSKNNIFMSNSYPRDFVNCSTLPALNLASWREAS | 2.4 | – | –
